Results published in patent US20090068182A1 (ARIUS RESEARCH, published 2009).
Positions count from the first letter of the chain named.

Legend:
human CD9 [1] = target: T1, human CD9 (human, UniProt P21926 2-228); assay: flow cytometry on melanoma WM164 cells, antibody at 20 micrograms/mL
T1 construct: whole, on cells; Endogenous CD9; It stood on human cell lines (FACS, cell ELISA) and in tissue sections (IHC); For immunoprecipitation and Western blot it was solubilised from BxPC-3 cell lysate (band of about 25 kDa); also called AR40A746.2.3 antigen; IDAC 141204-01 antigen
T1 sequence (looked up): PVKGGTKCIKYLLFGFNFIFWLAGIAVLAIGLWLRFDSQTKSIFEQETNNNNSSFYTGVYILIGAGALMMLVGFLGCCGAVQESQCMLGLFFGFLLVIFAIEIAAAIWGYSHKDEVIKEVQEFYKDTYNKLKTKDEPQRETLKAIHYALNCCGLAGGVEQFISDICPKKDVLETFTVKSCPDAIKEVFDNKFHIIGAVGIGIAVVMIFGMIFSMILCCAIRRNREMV
Method: (§1) All cell lines were obtained from the American Type Tissue Collection (ATCC, Manassas, Va.) except for the melanoma cell lines WM9, WM35, WM164, WM451, WM537, WM852, WM983, WM1205 and WM1232 which were obtained from Dr. David Hogg (University of Toronto, Toronto, Canada).
(§2) Cells were prepared for FACS by initially washing the cell monolayer with DPBS (without Ca⁺⁺ and Mg⁺⁺). Cell dissociation buffer (Invitrogen, Burlington, ON) was then used to dislodge the cells from their cell culture plates at 37° C. After centrifugation and collection, the cells were resuspended in DPBS containing MgCl₂ CaCl₂ and 2 percent fetal bovine serum at 4° C. (staining media) and counted, aliquoted to appropriate cell density, spun down to pellet the cells and resuspended in staining media at 4° C. in the presence of the test antibody (AR40A746.2.3) or control antibodies (isotype control, anti-EGFR). Isotype control and the test antibody were assessed at 20 micrograms/mL whereas anti-EGFR was assessed at 5 micrograms/mL on ice for 30 minutes. Prior to the addition of Alexa Fluor 546-conjugated secondary antibody the cells were washed once with staining media. […] Flow cytometric acquisition of the cells was assessed by running samples on a FACSarray™ using the FACSarray™ System Software (BD Biosciences, Oakville, ON). […]

[2] = target: T2, AR40A746.2.3 antigen (CD9) in rhesus monkey normal tissues (rhesus monkey, UniProt I0FWF4 2-228); assay: IHC on normal tissue micro arrays, 5 micrograms/mL
T2 construct: whole, on cells; also called rhesus monkey CD9
T2 sequence: T1 sequence (looked up) with N150D, F175L, V177I
Method: (§3) IHC studies were conducted to evaluate the cross reactivity of AR40A746.2.3 to non human species tissues in order to find suitable preclinical toxicology model(s). All tissues used were formalin fixed paraffin embedded. The binding of AR40A746.2.3 to 8 normal tissues of cynomolgus and rhesus monkey (Biochain, CA, USA) and 10 normal tissues of rabbit, rat, mouse and sheep (Zymed laboratories Inc, CA, USA) was performed using tissue micro arrays. Previous experiments were conducted to optimize the IHC binding conditions of the antibody. Tissue sections were deparaffinized by drying in an oven at 58° C. for 1 hour and dewaxed by immersing in xylene 5 times for 4 minutes each in Coplin jars. Following treatment through a series of graded ethanol washes (100 to 75 percent) the sections were re-hydrated in water. The slides were immersed in 10 mM citrate buffer at pH 6 (Dako, Toronto, Ontario) then microwaved at high, medium, and low power settings for 5 minutes each and finally immersed in cold PBS. […] Immunoreactivity of the primary antibodies was detected/visualized with HRP conjugated secondary antibodies as supplied (Dako Envision System, Toronto, Ontario) for 30 minutes at room temperature. […]

human CD9 [3] = target: T1, human CD9; assay: flow cytometry on prostate cancer DU-145 cells, antibody at 20 micrograms/mL
Method: (§4) David Hogg (University of Toronto, Toronto, Canada).
(§5) Cells were prepared for FACS by initially washing the cell monolayer with DPBS (without Ca⁺⁺ and Mg⁺⁺). Cell dissociation buffer (Invitrogen, Burlington, ON) was then used to dislodge the cells from their cell culture plates at 37° C. After centrifugation and collection, the cells were resuspended in DPBS containing MgCl₂ CaCl₂ and 2 percent fetal bovine serum at 4° C. (staining media) and counted, aliquoted to appropriate cell density, spun down to pellet the cells and resuspended in staining media at 4° C. in the presence of the test antibody (AR40A746.2.3) or control antibodies (isotype control, anti-EGFR). Isotype control and the test antibody were assessed at 20 micrograms/mL whereas anti-EGFR was assessed at 5 micrograms/mL on ice for 30 minutes. Prior to the addition of Alexa Fluor 546-conjugated secondary antibody the cells were washed once with staining media. The Alexa Fluor 546-conjugated antibody in staining media was then added for 30 minutes at 4° C. The cells were then washed for the final time and resuspended in fixing media (staining media containing 1.5 percent paraformaldehyde). Flow cytometric acquisition of the cells was assessed by running samples on a FACSarray™ using the FACSarray™ System Software (BD Biosciences, Oakville, ON). […]
(§6) FIG. 2 presents the mean fluorescence intensity fold increase above isotype control. […]

[4] = target: T3, AR40A746.2.3 antigen (CD9) in rat normal tissues (rat, UniProt P40241 1-226); assay: IHC on formalin fixed paraffin embedded normal tissue micro array
T3 construct: whole, on cells; also called rat CD9
T3 sequence (looked up): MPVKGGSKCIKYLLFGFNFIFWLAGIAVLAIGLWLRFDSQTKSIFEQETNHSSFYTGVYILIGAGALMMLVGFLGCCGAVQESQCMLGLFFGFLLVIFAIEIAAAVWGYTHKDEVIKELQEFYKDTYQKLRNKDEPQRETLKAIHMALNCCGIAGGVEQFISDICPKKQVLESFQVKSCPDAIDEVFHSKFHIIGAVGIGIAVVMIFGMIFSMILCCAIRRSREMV
Method: as §3

[5] = target: T4, AR40A746.2.3 antigen (CD9) in mouse normal tissues (mouse, UniProt P40240 1-226); assay: as above
T4 construct: whole, on cells; also called mouse CD9
T4 sequence (looked up): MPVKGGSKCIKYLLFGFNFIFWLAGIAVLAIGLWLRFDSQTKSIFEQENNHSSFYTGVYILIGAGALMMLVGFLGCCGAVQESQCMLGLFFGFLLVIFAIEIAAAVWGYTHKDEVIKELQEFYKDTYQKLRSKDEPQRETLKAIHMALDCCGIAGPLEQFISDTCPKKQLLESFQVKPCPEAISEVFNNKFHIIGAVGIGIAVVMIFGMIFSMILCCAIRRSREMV
Method: as §3

human CD9 [6] = target: T1, human CD9; assay: flow cytometry on colon cancer Lovo cells, antibody at 20 micrograms/mL
Method: as §4, §5, §6

human CD9 [7] = target: T1, human CD9; assay: flow cytometry on melanoma A375 cells, antibody at 20 micrograms/mL
Method: as §1, §2

human CD9 [8] = target: T1, human CD9; assay: flow cytometry on melanoma A2058 cells, antibody at 20 micrograms/mL
Method: as §1, §2

human CD9 [9] = target: T1, human CD9; assay: flow cytometry on melanoma WM537 cells, antibody at 20 micrograms/mL
Method: as §1, §2

human CD9 [10] = target: T1, human CD9; assay: flow cytometry on melanoma WM35 cells, antibody at 20 micrograms/mL
Method: as §1, §2

human CD9 [11] = target: T1, human CD9; assay: flow cytometry on melanoma WM852 cells, antibody at 20 micrograms/mL
Method: as §1, §2

human CD9 [12] = target: T1, human CD9; assay: flow cytometry on melanoma WM451 cells, antibody at 20 micrograms/mL
Method: as §1, §2

human CD9 [13] = target: T1, human CD9; assay: flow cytometry on non-cancer lung Hs888.Lu cells, antibody at 20 micrograms/mL
Method: as §1, §2

human CD9 [14] = target: T1, human CD9; assay: flow cytometry on colon cancer SW1116 cells, antibody at 20 micrograms/mL
Method: as §1, §2

human CD9 [15] = target: T1, human CD9; assay: flow cytometry on breast cancer MCF-7 cells, antibody at 20 micrograms/mL
Method: as §1, §2

human CD9 [16] = target: T1, human CD9; assay: flow cytometry on melanoma WM9 cells, antibody at 20 micrograms/mL
Method: as §1, §2

human CD9 [17] = target: T1, human CD9; assay: flow cytometry on colon cancer DLD-1 cells, antibody at 20 micrograms/mL
Method: as §1, §2

human CD9 [18] = target: T1, human CD9; assay: flow cytometry on melanoma WM983 cells, antibody at 20 micrograms/mL
Method: as §1, §2

human CD9 [19] = target: T1, human CD9; assay: flow cytometry on ovarian cancer OVCAR-3 cells, antibody at 20 micrograms/mL
Method: as §4, §5, §6

human CD9 [20] = target: T1, human CD9; assay: flow cytometry on non-cancer skin CCD-27sk cells, antibody at 20 micrograms/mL
Method: as §1, §2

human CD9 [21] = target: T1, human CD9; assay: flow cytometry on breast cancer MDA-MB-231 cells, antibody at 20 micrograms/mL
Method: as §1, §2

human CD9 [22] = target: T1, human CD9; assay: flow cytometry on pancreatic cancer BxPC-3 cells, antibody at 20 micrograms/mL
Method: as §1, §2

human CD9 [23] = target: T1, human CD9; assay: flow cytometry on melanoma WM1232 cells, antibody at 20 micrograms/mL
Method: as §1, §2

human CD9 [24] = target: T1, human CD9; assay: flow cytometry on colon cancer HT-29 cells, antibody at 20 micrograms/mL
Method: as §4, §5, §6

human CD9 [25] = target: T1, human CD9; assay: flow cytometry on prostate cancer PC-3 cells, antibody at 20 micrograms/mL
Method: as §1, §2

- mean fluorescence intensity fold increase above isotype control (human CD9 [1]): 3.3 fold
- binding result [2]: binds
- mean fluorescence intensity fold increase above isotype control (human CD9 [3]): 30.4 fold
- binding result [4]: no binding (tested: 5 micrograms/mL)
- binding result [5]: no binding (tested: 5 micrograms/mL)
- mean fluorescence intensity fold increase above isotype control (human CD9 [6]): 31.6 fold
- mean fluorescence intensity fold increase above isotype control (human CD9 [7]): 4.7 fold
- mean fluorescence intensity fold increase above isotype control (human CD9 [8]): 2.7 fold
- mean fluorescence intensity fold increase above isotype control (human CD9 [9]): 2.6 fold
- mean fluorescence intensity fold increase above isotype control (human CD9 [10]): 13.8 fold
- mean fluorescence intensity fold increase above isotype control (human CD9 [11]): 4.2 fold
- mean fluorescence intensity fold increase above isotype control (human CD9 [12]): 7 fold
- mean fluorescence intensity fold increase above isotype control (human CD9 [13]): 20.5 fold
- mean fluorescence intensity fold increase above isotype control (human CD9 [14]): 13.3 fold
- mean fluorescence intensity fold increase above isotype control (human CD9 [15]): 107 fold
- mean fluorescence intensity fold increase above isotype control (human CD9 [16]): 4.8 fold
- mean fluorescence intensity fold increase above isotype control (human CD9 [17]): 50.5 fold
- mean fluorescence intensity fold increase above isotype control (human CD9 [18]): 3.9 fold
- mean fluorescence intensity fold increase above isotype control (human CD9 [19]): 64.9 fold
- mean fluorescence intensity fold increase above isotype control (human CD9 [20]): 8.7 fold
- mean fluorescence intensity fold increase above isotype control (human CD9 [21]): 19.8 fold
- mean fluorescence intensity fold increase above isotype control (human CD9 [22]): 18.4 fold
- mean fluorescence intensity fold increase above isotype control (human CD9 [23]): 3.4 fold
- mean fluorescence intensity fold increase above isotype control (human CD9 [24]): 80.5 fold
- mean fluorescence intensity fold increase above isotype control (human CD9 [25]): 37.8 fold
B1: AR40A746.2.3 monoclonal antibody (hybridoma IDAC 141204-01) (antibody, V domains shown)
VH: DVQLQESGPGLVKPSQSLSLTCTVTGYSITSDYAWNWIRQFPGNKLEWMGYISYSGFTNYNPSLKSRISITRDTSKNQFFLQLSSVTTEDTATYFCEGGNYRYSWFPYWGQGTLVTVSA
VL: DIQMTQTTSSLSASLGDRVTISCSASQGISNYLNWYQQKPDGNVKLLIYYTSSLHSGVPSRFSGSGSGTDYSLTISNLEPEDIATYYCQQYSKLPYTFGGGTKLEIKR
notes: also called IDAC 141204-01 antibody; mAR40A746.2.3
